Consider 1 molecule from patent publication US11479601B2, “Antibodies specific to Sonic Hedgehog and method of use thereof” (The Regents of the University of California, priority 2016, dated 2022).

In the test the test system is GLI. Put plainly: Ex vivo GLI expression in excised A549 xenograft tumors. On the set-up: species or system mice. The conditions noted are these: tumors after 8 mg/kg treatment, versus IgG controls. Here is the method:
The in vivo effect of the C-terminal Shh antibodies were tested using the A549 cell subcutaneous xenograft tumor model in mice, as described in Example 1. After xenograft formation, animals were intra-tumor injected with a C terminal Shh antibody (2G4 or 2D9; each at 158 μg), or a control solution, 3 times a week for about 3 weeks (at 2-3 day intervals). Tumor volume was determined, as described in Example 1, every 2 days. Weight and size of the excised tumor were determined after the antibody treatment. […]
Total protein from whole-cell lysates was prepared with M-PER buffer (ThermoFisher Scientific) and from frozen tissues with T-PER (ThermoFisher Scientific) supplemented with protease and phosphatase inhibitors (Roche). Subsequently protein concentrations were determined via a Bradford assay. Equal quantities of proteins were combined with 5× protein loading buffer and separated by SDS-PAGE followed by PVDF membrane transfer. […]
Antibody-treated tumors were harvested to extract total RNA using Trizol (Invitrogen) and cDNA was synthesized using reverse transcriptase from iScript's cDNA Synthesis Kit (Bio-Rad). Real-time quantitative reverse transcript-polymerase chain reaction (qRT-PCR) was performed with TaqMan® Universal PCR Master Mix (Life Technologies) using gene specific PCR primers for human […] (Life Technologies). […]

B1: 2G4: purified mouse monoclonal C-terminal Shh antibody from hybridoma sub-clone 2G4 of clone 1C11, IgG1 kappa (antibody, V domains shown)
VH: EVKLVESGGGLVKPGGSLKLSCAASGFTFSSYTMSWVRQTPAKRLEWVATISSGGGNTYYPDSVKGRFTISRDNARNTLYLQMSSLRSEDTAMYYCARDYRSLFAYWGQGTLVTVSA
VL: QIVLTQSPAIMSASPGEKVTITCSASSSVSYMHWFQQKPGTSPKLWIYSTSNLASGVPARFSGSGSGTSYSLTISRMEAEDAATYYCQQRSSYPFTFGSGTKLEIK
For the molecule B1, the “GLI transcripts (qRT-PCR) and GLI polypeptide expression (Western blot) in tumors” value was “significant reduction in GLI transcripts”.
